We go through eleven molecules from patent US20100260668A1 (published 2010).

Assay [1] concerns the target T1, DLL4 ECD/His tag (R&D 1506-D4-050) (UniProt Q9NR61 27-529).
T1 construct: extracellular domain; Bought antigen coated on the ELISA plate; not shown: His tag
The assay is described as follows: direct bind ELISA, DLL4 on plate; reference antibody.

The target in assay [2] is T2, CD40/FC (CD40 ECD/FC chimera-His tag) (UniProt P25942 21-193, limits assumed).
T2 construct: extracellular domain; Bought reagent
Put plainly: Direct Bind ELISA, antigen on plate; C-terminal VD. On the technique in general: In an ELISA, binding on a coated surface is turned into a signal by an enzyme label.

In assay [3] the target is T3, DLL4 (human, UniProt Q9NR61 27-685).
T3 construct: whole, on cells; also called human DLL4
The assay is described as follows: flow cytometry on 293G-human DLL4 cells; reference antibody. In general terms: A flow cytometer gives signals particle by particle.

Assay [4] addresses T3, DLL4. Put plainly: flow cytometry on cells carrying the target, 2 ug/mL; parent antibody.
The target in assay [5] is CD22/FC (Siglec-2 ECD/FC chimera) (UniProt P20273 20-687). The assay is described as follows: Direct Bind ELISA, antigen on plate.
Assay [6] concerns the target T4, VEGF (VEGF 1-165 aa, R&D Systems 293-VE-010) (UniProt P15692 27-191).
T4 construct: bought reagent; also called vascular endothelial growth factor
Put plainly: Direct bind ELISA, VEGF coated on plate; reference antibody printed beside DVD491.

The target in assay [7] is T4, VEGF (VEGF 1-165 aa, R&D Systems …). The assay is described as follows: Direct bind ELISA, VEGF coated on plate; reference antibody printed beside DVD492.
For assay [8] the target is unchanged. The assay is described as follows: Direct bind ELISA, VEGF coated on plate; reference antibody printed beside DVD497.
The target is the same in assay [9]. The assay is described as follows: Direct bind ELISA, VEGF coated on plate; reference antibody printed beside DVD498.
The target is the same in assay [10]. The assay is described as follows: Direct bind ELISA, VEGF coated on plate; reference antibody printed beside DVD503.
Assay [11] shares this target. The assay is described as follows: Direct bind ELISA, VEGF coated on plate; reference antibody printed beside DVD504.
The target is the same in assay [12]. The assay is described as follows: Direct bind ELISA, VEGF coated on plate; reference antibody printed beside DVD509.
For assay [13] the target is unchanged. Put plainly: Direct bind ELISA, VEGF coated on plate; reference antibody printed beside DVD510.
The target in assay [14] is T5, VEGF (UniProt P15692 27-191, limits assumed).
T5 construct: bought antigen coated on the ELISA plate
Put plainly: direct bind ELISA, reference antibody.

Assay [15] concerns the target T6, CD-19 (UniProt P15391 20-291, limits assumed).
T6 construct: construct unknown
T6 sequence (looked up): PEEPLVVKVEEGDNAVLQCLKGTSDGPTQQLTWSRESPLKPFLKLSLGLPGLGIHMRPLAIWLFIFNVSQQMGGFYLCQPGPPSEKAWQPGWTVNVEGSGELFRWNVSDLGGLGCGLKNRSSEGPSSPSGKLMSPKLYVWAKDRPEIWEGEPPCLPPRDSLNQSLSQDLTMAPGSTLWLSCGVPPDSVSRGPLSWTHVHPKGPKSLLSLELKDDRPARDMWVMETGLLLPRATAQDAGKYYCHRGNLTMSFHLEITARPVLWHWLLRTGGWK
Put plainly: Direct Bind ELISA, antigen on plate; N-terminal VD.

The target in assay [16] is CD80/FC (B7-1 ECD/FC chimera) (UniProt P33681 35-242). The assay is described as follows: Direct Bind ELISA, antigen on plate.
The target in assay [17] is T7, RON (MSP Receptor ECD-His tag, R&D Systems 1947-MS-050) (UniProt Q04912 25-957, limits assumed).
T7 construct: extracellular domain; not shown: His tag
Put plainly: Direct bind ELISA on RON; reference antibody.

The target of assay [18] is T2, CD40/FC (CD40 ECD/FC chimera-His tag). Put plainly: Direct Bind ELISA, antigen on plate.
The target of assay [19] is T6, CD-19. The assay is described as follows: Direct Bind ELISA, antigen on plate; C-terminal VD.

One may read the EC50 as the concentration giving half of the maximal effect.

Where “and” joins values, the source holds several entries; their conditions need not be identical. Identical values can stand only once.

T4 sequence (P15692 other isoform, or with tags, fused parts or gaps limits assumed): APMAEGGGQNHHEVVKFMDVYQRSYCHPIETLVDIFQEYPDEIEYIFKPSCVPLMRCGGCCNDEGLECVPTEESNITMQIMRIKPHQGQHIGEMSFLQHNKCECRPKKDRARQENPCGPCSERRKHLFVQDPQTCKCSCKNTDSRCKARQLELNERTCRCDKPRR
T5 sequence (P15692 other isoform, or with tags, fused parts or gaps limits assumed): as above
T2 sequence (P25942 21-193 limits assumed, change not shown): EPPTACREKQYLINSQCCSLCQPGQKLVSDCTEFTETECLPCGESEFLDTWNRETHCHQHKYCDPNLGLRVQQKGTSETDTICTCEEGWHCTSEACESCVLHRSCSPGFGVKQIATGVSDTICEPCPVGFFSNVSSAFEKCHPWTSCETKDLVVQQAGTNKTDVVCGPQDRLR
Sequence of CD80/FC (B7-1 ECD/FC chimera) (P33681 35-242, change not shown): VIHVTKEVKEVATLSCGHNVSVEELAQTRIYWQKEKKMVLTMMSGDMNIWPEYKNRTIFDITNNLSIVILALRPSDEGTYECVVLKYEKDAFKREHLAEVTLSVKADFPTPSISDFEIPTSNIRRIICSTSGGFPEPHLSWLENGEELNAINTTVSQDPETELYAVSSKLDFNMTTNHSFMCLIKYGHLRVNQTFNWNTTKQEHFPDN

B1: AB072 (antibody, human IgG1, kappa, V domains shown)
VH: EVQLQQSGPELVKPGASVKMSCKASGYTFTSYVINWVKQKPGQGLEWIGLINPYNDGTKYNEKFKVKATLTSDKSSSTAYMELSSLTSEDSAVYYCASYYYGSRYYFDYWGQGTTLTVSS
VL: DIQMTQSSSYLSVSLGGRVTITCKASDHINNWLAWYQQKPGNAPRLLISGATSLETGVPSRFSGSGSGKDYTLSITSLQTEDVATYYCQQYWSIPLTFGAGTKLELKR
notes: also called AB072-DLL-4
Take B1: the EC50 in assay [1] was 1.29 nM and 0.7 nM and 1.99 nM and 1.85 nM.

B2: DVD009 (CD-20 and CD-40 DVD-Ig) (bispecific antibody, IgG1)
VH: QVQLQQPGAELVKPGASVKMSCKASGYTFTSYNMHWVKQTPGRGLEWIGAIYPGNGDTSYNQKFKGKATLTADKSSSTAYMQLSSLTSEDSAVYYCARSTYYGGDWYFNVWGAGTTVTVSAASTKGPQVQLVESGGGVVQPGRSLRLSCAASGFTFSSYGMHWVRQAPGKGLEWVAVISYEESNRYHADSVKGRFTISRDNSKITLYLQMNSLRTEDTAVYYCARDGGIAAPGPDYWGQGTLVTVSS
VL: QIVLSQSPAILSPSPGEKVTMTCRASSSVSYIHWFQQKPGSSPKPWIYATSNLASGVPVRFSGSGSGTSYSLTISRVEAEDAATYYCQQWTSNPPTFGGGTKLEIKRTVAAPDIVMTQSPLSLTVTPGEPASISCRSSQSLLYSNGYNYLDWYLQKPGQSPQVLISLGSNRASGVPDRFSGSGSGTDFTLKISRVEAEDVGVYYCMQARQTPFTFGPGTKVDIRR
notes: Outer AB001, inner AB009; HC vector V1 (wild-type hIgG1 constant), LC vector V2 (kappa constant); also called DVD009H; DVD009L
B2 displayed an EC50 in [2] of 3.55 nM. That is a single-digit nanomolar value.

B3: AB015 (antibody, human IgG1, kappa)
heavy: not shown
light: DIQMTQSPSSLSASVGDRVTITCRASQDVSTAVAWYQQKPGKAPKLLIYSASFLYSGVPSRFSGSGSGTDFTLTISSLQPEDFATTYYCQQSYTGTVTFGQGTKVEIKRTVAAPSVFIFPPSDEQLKSGTASVVCLLNNFYPREAKVQWKVDNALQSGNSQESVTEQDSKDSTYSLSSTLTLSKADYEKHKVYACEVTHQGLSSPVTKSFNRGEC
notes: Parent antibody; also called AB015
B3: the EC50 in assay [3] is 0.5 nM. The “FACS Geometric Mean” value in [4] turned out to be 308.

B4: AB008 (anti-CD-22 parent antibody) (antibody, IgG1, V domains shown)
VH: QVQLVQSGAEVKKPGSSVKVSCKASGYTFTSYWLHWVRQAPGQGLEWIGYINPRNDYTEYNQNFKDKATITADESTNTAYMELSSLRSEDTAFYFCARRDITTFYWGQGTTVTVSS
VL: DIQLTQSPSSLSASVGDRVTMSCKSSQSVLYSANHKNYLAWYQQKPGKAPKLLIYWASTRESGVPSRFSGSGSGTDFTFTISSLQPEDIATYYCHQYLSSWTFGGGTKLEIKR
notes: HC vector V1 (wild-type hIgG1 constant), LC vector V2 (kappa constant); also called AB008VH; AB008VL
As for B4, the EC50 in assay [5] is 3.44 nM.

B5: AB071 (antibody, human IgG1, kappa, L234A L235A, V domains shown)
VH: EVQLVESGGGLVQPGGSLRLSCAASGFTINASWIHWVRQAPGKGLEWVGAIYPYSGYTNYADSVKGRFTISADTSKNTAYLQMNSLRAEDTAVYYCARWGHSTSPWAMDYWGQGTLVTVSS
VL: DIQMTQSPSSLSASVGDRVTITCRASQVIRRSLAWYQQKPGKAPKLLIYAASNLASGVPSRFSGSGSGTDFTLTISSLQPEDFATYYCQQSNTSPLTFGQGTKVEIKR
notes: Parent anti-VEGF antibody
Regarding B5, the EC50 in assay [6] is 45.7 nM; in assay [7], 45.7 nM; in assay [8] it was 45.7 nM; in [9], 45.7 nM; in assay [10], 37.8 nM; in assay [11] it was 37.8 nM. Moreover, the EC50 in assay [12] and in assay [13] was 37.8 nM each time.

B6: AB071 (antibody, human IgG1, kappa, L234A L235A, V domains shown)
VH: EVQLVESGGGLVQPGGSLRLSCAASGFTINASWIHWVRQAPGKGLEWVGAIYPYSGYTNYADSVKGRFTISADTSKNTAYLQMNSLRAEDTAVYYCARWGHSTSPWAMDYWGQGTLVTVSS
VL: DIQMTQSPSSLSASVGDRVTITCRASQVIRRSLAWYQQKPGKAPKLLIYAASNLASGVPSRFSGSGSGTDFTLTISSLQPEDFATYYCQQSNTSPLTFGQGTKVEIKR
For the molecule B6, in assay [14], the EC50 is 35.4 nM and 26.6 nM.

B7: DVD002 (CD-19 and CD-20 DVD-Ig) (bispecific antibody, IgG1)
VH: QVQLQQSGAELVRPGSSVKISCKASGYAFSSYWMNWVKQRPGQGLEWIGQIWPGDGDTNYNGKFKGKATLTADESSSTAYMQLSSLASEDSAVYFCARRETTTVGRYYYAMDYWGQGTSVTVSSASTKGPQVQLQQPGAELVKPGASVKMSCKASGYTFTSYNMHWVKQTPGRGLEWIGAIYPGNGDTSYNQKFKGKATLTADKSSSTAYMQLSSLTSEDSAVYYCARSTYYGGDWYFNVWGAGTTVTVSA
VL: DILLTQTPASLAVSLGQRATISCKASQSVDYDGDSYLNWYQQIPGQPPKLLIYDASNLVSGIPPRFSGSGSGTDFTLNIHPVEKVDAATYHCQQSTEDPWTFGGGTKLEIKRTVAAPQIVLSQSPAILSPSPGEKVTMTCRASSSVSYIHWFQQKPGSSPKPWIYATSNLASGVPVRFSGSGSGTSYSLTISRVEAEDAATYYCQQWTSNPPTFGGGTKLEIKR
notes: Outer AB006, inner AB001; HC vector V1 (wild-type hIgG1 constant), LC vector V2 (kappa constant); also called DVD002H; DVD002L
Regarding B7, in assay [15], a half-maximal response (EC50) required 0.07 nM.

B8: AB007 (anti-CD-80 parent antibody) (antibody, IgG1, V domains shown)
VH: QVQLQESGPGLVKPSETLSLTCAVSGGSISGGYGWGWIRQPPGKGLEWIGSFYSSSGNTYYNPSLKSQVTISTDTSKNQFSLKLNSMTAADTAVYYCVRDRLFSVVGMVYNNWFDVWGPGVLVTVSS
VL: ESALTQPPSVSGAPGQKVTISCTGSTSNIGGYDLHWYQQLPGTAPKLLIYDINKRPSGISDRFSGSKSGTAASLAITGLQTEDEADYYCQSYDSSLNAQVFGGGTRLTVLG
notes: HC vector V1 (wild-type hIgG1 constant), LC vector V3 (lambda constant); also called AB007VH; AB007VL
In assay [16], B8 showed an EC50 of 0.77 nM. This lies in the sub-nanomolar range.

B9: AB005 (anti-RON (seq. 1) parent antibody) (antibody, human IgG1, V domains shown)
VH: EVQLVQSGGGLVKPGGSLRLSCAASGFTFSSYAMHWVRQAPGKGLEWVAVISYDGSNKYYADSVKGRFTISRDNSKNTLYLQMNSLRAEDTAVYYCARFSGWPNNYYYYGMDVWGQGTTVTVSS
VL: DVVMTQSPLSLPVTPGEPASISCRSSQSLLHSNGFNYVDWYLQKPGQSPHLLIYFGSYRASGVPDRFSGSGSGTDFTLKISRVEAEDVGVYYCMQALQTPPWTFGQGTKVEIRR
notes: also called AB005VH; AB005VL
As to B9, the EC50 in [17] was 0.26 nM and 0.69 nM.

B10: AB009 (anti-CD-40 parent antibody) (antibody, IgG1, V domains shown)
VH: QVQLVESGGGVVQPGRSLRLSCAASGFTFSSYGMHWVRQAPGKGLEWVAVISYEESNRYHADSVKGRFTISRDNSKITLYLQMNSLRTEDTAVYYCARDGGIAAPGPDYWGQGTLVTVSS
VL: DIVMTQSPLSLTVTPGEPASISCRSSQSLLYSNGYNYLDWYLQKPGQSPQVLISLGSNRASGVPDRFSGSGSGTDFTLKISRVEAEDVGVYYCMQARQTPFTFGPGTKVDIRR
notes: HC vector V1 (wild-type hIgG1 constant), LC vector V2 (kappa constant); also called AB009VH; AB009VL
As to B10, it took 0.99 nM to reach a half-maximal effect in [18] (EC50).

B11: DVD001 (CD-20 and CD-19 DVD-Ig) (bispecific antibody, IgG1)
VH: QVQLQQPGAELVKPGASVKMSCKASGYTFTSYNMHWVKQTPGRGLEWIGAIYPGNGDTSYNQKFKGKATLTADKSSSTAYMQLSSLTSEDSAVYYCARSTYYGGDWYFNVWGAGTTVTVSAASTKGPQVQLQQSGAELVRPGSSVKISCKASGYAFSSYWMNWVKQRPGQGLEWIGQIWPGDGDTNYNGKFKGKATLTADESSSTAYMQLSSLASEDSAVYFCARRETTTVGRYYYAMDYWGQGTSVTVSS
VL: QIVLSQSPAILSPSPGEKVTMTCRASSSVSYIHWFQQKPGSSPKPWIYATSNLASGVPVRFSGSGSGTSYSLTISRVEAEDAATYYCQQWTSNPPTFGGGTKLEIKRTVAAPDILLTQTPASLAVSLGQRATISCKASQSVDYDGDSYLNWYQQIPGQPPKLLIYDASNLVSGIPPRFSGSGSGTDFTLNIHPVEKVDAATYHCQQSTEDPWTFGGGTKLEIKR
notes: Outer AB001, inner AB006; HC vector V1 (wild-type hIgG1 constant), LC vector V2 (kappa constant); also called DVD001H; DVD001L
The molecule B11 yielded an EC50 in assay [19] of 12.9 nM.
